Test results from publication PMC4245398.

Target: vimentin (UniProt P08670)
Assay: co-immunoprecipitation, FAK-FLAG and endogenous vimentin
Conditions: reference: WT FAK-FLAG; sites Y397

binding against the reference: weaker
Substance: focal adhesion kinase (FAK) (from UniProt Q05397) Y397F FAK-FLAG
